In patent publication US20190367619A1 (ARGENX, published 2019):
Read-outs that look alike come from different tables or passages of the source.

T1: human galectin-10-His (recombinant human galectin-10 with TEV-cleavable N-terminal His-tag) (human)
T1 construct: SEC-MALLS: dimer in solution; also called Gal10-His; humanGal10-His
T1 chain: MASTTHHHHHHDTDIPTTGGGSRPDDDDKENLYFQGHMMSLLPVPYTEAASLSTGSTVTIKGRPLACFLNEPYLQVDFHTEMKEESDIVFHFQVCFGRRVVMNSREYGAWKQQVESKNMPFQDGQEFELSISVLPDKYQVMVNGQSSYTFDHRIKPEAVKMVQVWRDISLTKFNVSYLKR

T2: cynomolgus galectin-10-His, WGS isoform (cynomolgus)
T2 construct: not shown: His tag
T2 chain: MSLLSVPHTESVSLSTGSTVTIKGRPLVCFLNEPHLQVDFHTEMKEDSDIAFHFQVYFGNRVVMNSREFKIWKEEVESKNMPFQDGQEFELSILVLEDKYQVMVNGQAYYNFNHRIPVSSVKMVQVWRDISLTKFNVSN

T3: cynomolgus galectin-10-His, YRT isoform (cynomolgus)
T3 construct: not shown: His tag
T3 chain: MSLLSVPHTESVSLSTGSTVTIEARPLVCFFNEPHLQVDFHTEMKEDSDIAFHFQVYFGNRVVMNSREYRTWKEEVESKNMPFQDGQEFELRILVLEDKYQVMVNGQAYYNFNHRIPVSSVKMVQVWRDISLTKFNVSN

T4: TEV-cleaved wild-type recombinant human galectin-10 (soluble, in Fab complexes, or as recombinant galectin-10 … (human, UniProt Q05315 1-142))
T4 sequence: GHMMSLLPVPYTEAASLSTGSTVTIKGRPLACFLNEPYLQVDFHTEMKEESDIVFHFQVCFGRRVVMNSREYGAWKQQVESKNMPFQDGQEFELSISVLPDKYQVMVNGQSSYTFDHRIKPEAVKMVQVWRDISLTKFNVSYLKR


Experiments:
[1] = target: TEV-cleaved wild-type recombinant human galectin-10 (soluble, in Fab complexes, or as recombinant galectin-10 crystals / CLCs) (human) (UniProt Q05315); experiment: cell-based or functional assay
[2] = target: human galectin-10-His (recombinant human galectin-10 with TEV-cleavable N-terminal His-tag) (human); experiment: ELISA, scFv-hFc on coated galectin-10-His (0.2 ug/mL)
[3] = target: T1, human galectin-10-His (recombinant …); experiment: SPR Biacore T3000, scFv-hFc captured by anti-human Fc, galectin-10-His as analyte
[4] = target: T1, human galectin-10-His (recombinant …); experiment: ELISA, scFv-hFc on coated galectin-10-His (0.2 ug/mL)
Protocol: In a similar setup to that used during the initial screening, the relative binding properties of the 12 scFv-human Fc clones were analyzed by ELISA. Briefly, a Maxisorp plate was coated with galectin-10-His at 0.2 μg/mL and blocked with casein, before being incubated with a serial dilution of the scFv-human Fc fusion molecules. After several washing steps, detection of the bound scFv-human Fc was carried out with an anti-human Fc-HRP antibody. Absorbance was measured at 450 nm (reference at 620 nm) with Tecan instrument. Finally, the raw data (OD values) were plotted on GraphPad Prism 7.01. The EC50 value of each compound was calculated with a non-linear regression (log(agonist) vs. response Variable slope (four parameters)).

[5] = target: T1, human galectin-10-His (recombinant …); experiment: SPR Biacore T3000, scFv-hFc captured by anti-human Fc, galectin-10-His as analyte
Protocol: (§1) In order to determine the binding properties (on-rate/off-rate) of the scFv-human Fc panel, their binding capacity to galectin-10 was analyzed on Biacore T3000. For this purpose, a capture approach was set up. A CM5 Chip was coated with polyclonal anti-human Fc at 8000 RU, then a fixed concentration of the scFv-human Fc panel (1.5 μg/mL), diluted in HBS-EP pH7.4, were captured to reach a binding signal around 150 RU. Finally, a serial dilution of galectin-10-His (serial dilution, 1 over 2 from 5 μg/mL, 6 points of dilution) diluted in HBS-EP pH7.4 was injected. Raw data were analyzed via BIA evaluation software with a blank subtraction (4-3). The kd/KD and Rmax of each scFv-human Fc for galectin-10-His was determined using the Fit Kinetics simultaneous ka/kd/Binding with mass transfer/Local Rmax on BIA evaluation software.

[6] = target: T2, cynomolgus galectin-10-His, WGS isoform; experiment: ELISA, VHH on coated cynomolgus WGS galectin-10-His (1 ug/mL)
[7] = target: T3, cynomolgus galectin-10-His, YRT isoform; experiment: ELISA, VHH on coated cynomolgus YRT galectin-10-His (1 ug/mL)
[8] = target: T1, human galectin-10-His (recombinant …); experiment: Biacore capture approach (summary table), scFv-human Fc
Protocol: as §1

[9] = target: T4, TEV-cleaved wild-type recombinant human …; experiment: cell-based or functional assay
[10] = target: T4, TEV-cleaved wild-type recombinant human …; experiment: cell-based or functional assay; remark: listed apart in the source
[11] = target: T1, human galectin-10-His (recombinant …); experiment: ELISA binding (summary table), scFv-human Fc
[12] = target: T4, TEV-cleaved wild-type recombinant human …; experiment: cell-based or functional assay; remark: listed apart in the source

Row | Kd [3] [nM] | Bmax (OD values) [4] [OD] | EC50 [4] [nM] | Kd [5] [nM] | koff [5] [s⁻¹] | Molecule | further results
1 |  |  |  |  |  | Isotype control, scFv-human Fc (irrelevant scFv-human Fc) (Fc fusion) | CLC formation (crystallization robot assay) [1]: 100%; Bmax (OD values) [2]: 0.018 OD
2 | > 17 | 1.59 | 0.01 | 0.711 | 0.124 | 6A11 scFv-human Fc (Fc fusion, about 100 kDa on SDS-PAGE; also called 6A11 ScFv-hFc; not shown: CH2-CH3 constant domains of human IgG1 (vector pUPEX50)) scFv: ELQLVESGGGLVQPGGSLRLSCSASGFTFGAYAMNWVRQAPGKGLEWVSGVNSGGGLTSYGESVKGRFTISRDNAKNTLYLQMNRLNPDDTAVYYCAKSKRGAVVAGTGDDYWGQGTQVTVSSGGGGSGGGGSGGGGSSSALTQPSAVSVSLGQTARITCQGGNFGRYYVSWYQQKPGQAPVLVIYKDSERPSGIPERFSGSSSGDTATLTISGAQAEDEADYYCQSGSSSDNAVFGGGTHLTVL | 
3 |  |  |  |  |  | VHH 1D06 (purified, Myc-His tagged) (VHH, not shown: small tags and cut ends, also called 1D6) VHH: QLQLVESGGGLVQPGGSLRLSCAASENSVSTYAMGWFRQAPGKEREFVAAITRAGGNTYNADSVKGRFTISRDNAENTIYLQMNSLKPEDTAVYSCAAGPRYSTISTMFPYWGQGTQVTVSS | binding result [6]: no binding; binding result [7]: no binding
4 | > 17 | 1.56 | 0.48 | 2.96 | 0.0172 | 6F11 scFv-human Fc (Fc fusion, about 100 kDa on SDS-PAGE; also called 6F11 ScFv-hFc; not shown: CH2-CH3 constant domains of human IgG1 (vector pUPEX50)) scFv: QVQRQESGPGLVKPSQTLSVTCTVSGGSITTGPYSWSWIRQPPGKGLEWIGYIGYSGSTYYSPSLKSRTSISRDTSNNQFSLQLSSVTPEDTAVYYCARSRSSPTTFGMDYWGKGTLVTVSSGGGGSGGGGSGGGGSSSALTQPSAVSVSLGQTARITCQGGDFGRYYVAWYTQKPGQAPVLVIYQDSERPSGIPERFSGSSSGDTATLTISGAQAEDEAEYYCQSGISSDNIVFGGGTHLTVL | 
5 |  | 2.9 | 0.02 | 0.918 | 0.000117 | 6F05 scFv-human Fc (Fc fusion, about 100 kDa on SDS-PAGE; also called 6F5; 6F05 ScFv-hFc; not shown: CH2-CH3 constant domains of human IgG1 (vector pUPEX50)) scFv: QLQLVESGGGLVQPGGSLRLSCAASGFTFSSYAMSWVRQAPGKGLEWVSAINSGGGSTSYADSVKGRFTISRDNAKNTLYLQMNSLKPEDTAVYYCATPGDRLWYYRYDYWGQGTQVTVSSGGGGSGGGGSGGGGSQAGLTQPPSVSGTLGKAVTISCAGTSSDIGYGNYVSWYQQLPGTAPKLLIYKVSRRASGVPDRFSGSKSGNTASLSISGLQSEDEADYYCASYRYRNNVVFGGGTHLTVL | Kd [8]: 0.9 nM; koff [8]: 0.00012 s⁻¹; 100% Inhibition of CLC formation (Conc uM) [9]: 1 µM; 100% Solubilization of CLC (Conc uM) [9]: 4 µM; dissolution of in vitro grown Gal10 crystals (spinning disk confocal microscopy) [10]: ≤ 90 min; EC50 [11]: 0.02 nM; 100% Solubilization of CLC (Conc uM) [12]: 4 µM
